The record followed here is article PMC11169341.

For orientation: Kd means the equilibrium constant for the complex coming apart.

This data set concerns the target T1, B7H3 on Weri-RB1 cells (UniProt Q5ZPR3).
T1 sequence: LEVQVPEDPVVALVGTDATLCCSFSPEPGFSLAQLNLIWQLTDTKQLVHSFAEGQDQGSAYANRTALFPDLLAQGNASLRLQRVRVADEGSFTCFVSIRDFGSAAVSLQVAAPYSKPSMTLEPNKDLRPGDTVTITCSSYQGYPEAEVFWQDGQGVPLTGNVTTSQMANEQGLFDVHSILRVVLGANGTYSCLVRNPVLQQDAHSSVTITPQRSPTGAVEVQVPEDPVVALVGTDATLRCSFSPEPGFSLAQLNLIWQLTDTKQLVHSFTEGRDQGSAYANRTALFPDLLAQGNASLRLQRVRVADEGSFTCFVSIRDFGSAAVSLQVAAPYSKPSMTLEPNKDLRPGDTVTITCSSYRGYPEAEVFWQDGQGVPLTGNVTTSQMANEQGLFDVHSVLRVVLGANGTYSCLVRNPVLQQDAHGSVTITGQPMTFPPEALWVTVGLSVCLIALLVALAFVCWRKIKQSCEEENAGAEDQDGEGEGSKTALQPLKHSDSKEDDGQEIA
The experiment in a line: flow cytometry. As to conditions: FITC aptamer, ABB: AWB (composition not given) + 0.1 mg/ml yeast tRNA, 0.1 mg/ml salmon sperm DNA, 5% FBS, 1 mg/ml BSA, 60 min, 0-500 nM …, flow binding assay on ice, d.

Regarding “TAGGGAAGAGAAGGACATATGATACAGCACGGTATGACGAGTCCATTGTGTGTGCAGCTCGCTAATTGACTAGTACATGACCACTT [VRF-HS_B7H3-01]”, the Kd was 0.0321 µM. With “TAGGGAAGAGAAGGACATATGATATAAGTGACACATCAATCTCATGCGGATGAACCAGTGCGTTTGACTAGTACATGACCACTT [VRF-HS_B7H3-03]” the figure was 0.0466 µM; with “TAGGGAAGAGAAGGACATATGATCGCCCCTCTTTTCGATTTCAAGCTCCTAACCCACACCTCTTTGACTAGTACATGACCACTT [VRF-HS_B7H3-02]”, 0.0472 µM; with “TAGGGAAGAGAAGGACATATGATTGAGAAGTCACGCCACTTACCTGCGCTCAAAACCTCAGAATTGACTAGTACATGACCACTT [VRF-HS_B7H3-05]”, 0.0506 µM. With “TAGGGAAGAGAAGGACATATGATTGCCCCTGACACTTACACGCCACTATCAAGGCACACGCCATTGACTAGTACATGACCACTT [VRF-HS_B7H3-04]” the figure was 0.0514 µM.
